Data from US11957762B2, “Immune tolerant and non-immune tolerant elastin-like recombinant peptides and methods of use” (University of Utah Research Foundation, priority 2015, dated 2024).

Key:
DC2.4 cells = assay: Presentation of the CTL epitope […] by DCs (flow cytometry); type: cell-based, murine; conditions: 16 h incubation with DC2.4 cells
Procedure: Presentation of the CTL epitope, […], by DCs. Cells of a murine DC line (DC2.4, a gift from K. Rock)^(32) were plated at 2.5×10^5/500 μL/well in 24-well plates. 500 μL of OVA, […] peptide (SEQ ID NO: 22), or iTEPB-iTEPA-pOVA NP (SEQ ID NO: 56) (iTEP-pOVA NP hereafter) were dissolved in cell culture media and added to the wells containing DCs. The cells were further cultured for 16 hrs. at 37° C. with 5% CO2 before they were collected and washed with PBS. The MHC class I complex, H-2kb/[…] presented on DC surface was stained with a PE-tagged monoclonal antibody 25-D1.16 (Biolegend, 1:100 dilution) and quantified with flow cytometry (5×10^4 events collected per sample). The data are presented as MFI normalized to the MFI of untreated DC2.4 cells.
Presentation of […] epitope vaccine by DCs. The presentation was studied as previously described (Cho et al., J Drug Target, 2015; p 1-12). The concentration of iTEP-vaccine fusions (NPs) used in this experiment was 5 μM. The results of presentation were shown as mean fluorescence intensity (MFI) of 5000 treated, live cells in a given treatment, which were normalized to the MFI value of untreated DC2.4 cells.

C57BL/6 mice = assay: In vivo CTL response by ELISPOT IFN-γ assay; design: species or system mouse; conditions: for SIINFEKL-specific CTL response in vivo: immunized C57BL/6 mice, ELISPOT
Text: in vivo CTL response by ELISPOT IFN-γ assay. C57BL/6 mice were immunized subcutaneously with each immunogen (2 nmol […] equivalents per mouse) together with incomplete Freunds Adjuvants (IFA; Sigma, USA) at their left flanks. The immunization was repeated at their right flanks 1 week later. At 10 days after the second immunization, mice were sacrificed, and the spleens were harvested. The spleens of the sacrificed mice were teased into single-cell suspensions and filtered through nylon mesh […]. Red blood cells were lysed by Ammonium-Chloride-Potassium (ACK) lysing buffer. The washed and resuspended single cells were counted using Contess™ Automated Cell Counter (Invitrogen, USA). Splenocytes (8×10^6/mL) were incubated in RPMI-1640 medium supplemented with 10% heat inactivated fetal calf serum, 2 mM glutamine, 100 units/mL penicillin and 100 μg/mL streptomycin (Invitrogen, USA), in a 14 mL polypropylene tissue culture tube for 48 hours, with or without […] peptide (SEQ ID NO: 22) (2.5 μg/mL). The cells were then washed and recounted. 2×10^5 live cells in 100 μL medium were then loaded into wells of 96-well Filtration plates (Millipore, USA) coated with […] of capture anti-mouse IFN-γ mAb (Clone: R4-6A2, Biolegend, USA). Triplicates were set up for each condition. Cells were discarded after 24 hours of culture and the wells were incubated with […] of detectionbiotinylated, anti-mouse IFN-γ mAb overnight (Clone: XMG1.2-Biotin, Biolegend, USA). After the unbound antibodies were washed away from the wells, the bound antibodies were detected using horseradish peroxidase (HRP Avidin, Biolegend, USA) together with 3-amino-9-ethyl-carbazole (AEC) substrate (Sigma, USA). The membranes on the bottom of the wells were peeled off, and color spots on the membrane were scanned. The spots were automatically counted using ImageJ software.
Animal immunization. C57BL/6 mice were immunized by the subcutaneous injection of 2 nmol iTEP NP vaccines and incomplete Freunds Adjuvants (IFA; Sigma, USA) at their left flanks. Immunization was repeated at their right flanks after 1 week. On day 10 after the second immunization, mice were sacrificed, and the spleens were harvested.

B3Z cells = assay: B3Z CD8+ T cell hybridoma activation assay; type: cell-based; conditions: for activation of B3Z cells: DC2.4 cells pre-incubated with antigen
Procedure: B3Z CD8+ T cell hybridoma activation assay. B3Z cells (a gift from N. Shastri) are a CD8+ T-cell hybridoma engineered to secrete β-galactosidase when their T-cell receptors are engaged with an […]:H2K^b complex.^(33) To do this assay, 1×10^5 DC2.4 cells/well were set in 96-well plates. OVA, […] peptide (SEQ ID NO: 22), and iTEP-pOVA NP (SEQ ID NO: 56) at indicated concentrations were loaded into the cell culture for 16 hours and then washed away. 1×10^5 B3Z cells/well were added to the DC2.4 cell culture and co-cultured with DC2.4 cells for 24 hours. The cells were washed with PBS before 100 μL of lysis buffer (PBS with 100 mM 2-mercaptoethanol, 9 mM MgCl2, 0.125% NP-40) together with 0.15 mM chlorophenol red β-galactoside were added into the wells. After the plates were incubated at 37° C. for 4 hours, the reaction was stopped with 50 μL/well of 15 mM EDTA and 300 mM glycine. The OD at 570 nm was measured and the OD at 630 nm was used as reference. The OD was used as an indicator as activation status of B3Z cells.
Activation of B3Z hybridoma (CD8+T) cells. This assay was done with a protocol described previously (Cho et al., J Drug Target, 2015; p 1-12).

[1] = Hydrodynamic diameter by dynamic light scattering (DLS); type: physicochemical; design: Stability: key to the marks not given beside the values
Procedure: Characterization of the size of iTEPB-pOVA and iTEPB-iTEPA-pOVA fusions. The particle size distribution of the iTEP fusions was determined by dynamic light scattering (DLS) using a Zetasizer Nano-ZS instrument (Malvern Instruments, Malvern, UK) as previously described.^(29) The fusions were prepared at 5 μM and 25 μM in PBS and equilibrated at 37° C. for the measurement. The reported results represented the average particle size by number.
Dynamic light scattering (DLS) measurement. The measurement was carried out as previously described. iTEP, iTEP-MPBH-ABA-Sali conjugate, or PTX NP were measured at 25 μM in PBS at 37° C. using a Malvern Zetasizer Nano system (Malvern, Chester County, PA, USA).
Characterization of hydrodynamic diameters of iTEP-vaccine fusions. Hydrodynamic diameters of iTEP-vaccine fusions were determined by dynamic light scattering (DLS) using a Zetasizer Nano-ZS instrument (Malvern Instruments, Malvern, UK) as previously described (Zhao et al., Mol Pharm, 2014; 11(8):2703-12). The samples were resuspended at concentrations of 5, 25, 50, and 100 μM in PBS and sat at room temperature overnight before measurement. Some samples were kept in 5% C02 at 37° C. for 16 h before DLS measurement. Hydrodynamic diameter results of the sample of 5 μM concentration were reported because they were not affected by the used sample concentrations. Hydrodynamic diameters were presented using the size-by-number distribution approach. Z-average values and sizes-by-intensity data, however, were also reported.

[2] = after 16 h incubation at 37° C.
[3] = after 16 h incubation in 5% CO2 at 37° C.
[4] = after the 16 h incubation at 37° C.

B1: RED-NP: reductive-environment dependable NP, disulfide stabilized fusion iTEPB70-iTEPA28-(G8C)4-pOVA (SEQ ID NO: 61) (protein)
chain: GGAGVPGGAGVPGGAGVPGGAGVPGGAGVPGGAGVPGGAGVPGGAGVPGGAGVPGGAGVPGGAGVPGGAGVPGGAGVPGGAGVPGGAGVPGGAGVPGGAGVPGGAGVPGGAGVPGGAGVPGGAGVPGGAGVPGGAGVPGGAGVPGGAGVPGGAGVPGGAGVPGGAGVPGGAGVPGGAGVPGGAGVPGGAGVPGGAGVPGGAGVPGGAGVPGGAGVPGGAGVPGGAGVPGGAGVPGGAGVPGGAGVPGGAGVPGGAGVPGGAGVPGGAGVPGGAGVPGGAGVPGGAGVPGGAGVPGGAGVPGGAGVPGGAGVPGGAGVPGGAGVPGGAGVPGGAGVPGGAGVPGGAGVPGGAGVPGGAGVPGGAGVPGGAGVPGGAGVPGGAGVPGGAGVPGGAGVPGGAGVPGGAGVPGGAGVPGGAGVPGGGVLPGVGGVLPGVGGVLPGVGGVLPGVGGVLPGVGGVLPGVGGVLPGVGGVLPGVGGVLPGVGGVLPGVGGVLPGVGGVLPGVGGVLPGVGGVLPGVGGVLPGVGGVLPGVGGVLPGVGGVLPGVGGVLPGVGGVLPGVGGVLPGVGGVLPGVGGVLPGVGGVLPGVGGVLPGVGGVLPGVGGVLPGVGGVLPGVGGCGCGCGCGESIINFEKLTESIINFEKLTGG
presentation of SIINFEKL by DCs (DC2.4 cells): significantly better than that of the ST-NP
SIINFEKL-specific CTL response in vivo (C57BL/6 mice): outperformed the MS-NP and induced stronger CTL responses
activation of B3Z cells (B3Z cells): failed to activate B3Z cells as effectively as the MS-NP but, again, fared better than the ST-NP
hydrodynamic diameter by intensity [1, 2]: 70.99±17.52 nm
hydrodynamic diameter by number distribution [1, 3]: 53.05±12.38 nm
Z-average [1, 4]: 76.89 nm
hydrodynamic diameter by number distribution ([1]; before incubation (0 h), 5 μM): 61.94±12.71 nm
Z-average ([1]; before the incubation): 87.59 nm
hydrodynamic diameter by intensity ([1]; before the incubation (0 h)): 75.55±15.32 nm

B2: ST-NP: stable NP of the fusion iTEPB70-iTEPA56-pOVA (SEQ ID NO: 60) (protein)
chain: GGAGVPGGAGVPGGAGVPGGAGVPGGAGVPGGAGVPGGAGVPGGAGVPGGAGVPGGAGVPGGAGVPGGAGVPGGAGVPGGAGVPGGAGVPGGAGVPGGAGVPGGAGVPGGAGVPGGAGVPGGAGVPGGAGVPGGAGVPGGAGVPGGAGVPGGAGVPGGAGVPGGAGVPGGAGVPGGAGVPGGAGVPGGAGVPGGAGVPGGAGVPGGAGVPGGAGVPGGAGVPGGAGVPGGAGVPGGAGVPGGAGVPGGAGVPGGAGVPGGAGVPGGAGVPGGAGVPGGAGVPGGAGVPGGAGVPGGAGVPGGAGVPGGAGVPGGAGVPGGAGVPGGAGVPGGAGVPGGAGVPGGAGVPGGAGVPGGAGVPGGAGVPGGAGVPGGAGVPGGAGVPGGAGVPGGAGVPGGAGVPGGAGVPGGAGVPGGAGVPGGGVLPGVGGVLPGVGGVLPGVGGVLPGVGGVLPGVGGVLPGVGGVLPGVGGVLPGVGGVLPGVGGVLPGVGGVLPGVGGVLPGVGGVLPGVGGVLPGVGGVLPGVGGVLPGVGGVLPGVGGVLPGVGGVLPGVGGVLPGVGGVLPGVGGVLPGVGGVLPGVGGVLPGVGGVLPGVGGVLPGVGGVLPGVGGVLPGVGGGGGGGGGCGGGGGGGGCGGGGGGGGCGGGGGGGGCGESIINFEKLTESIINFEKLTGG
presentation of SIINFEKL by DCs (DC2.4 cells): significantly weaker presentation than the MS-NP
SIINFEKL-specific CTL response in vivo (C57BL/6 mice): significantly weaker than the one elicited by the MS-NP
activation of B3Z cells (B3Z cells): much less robust in activating B3Z cells than the MS-NP
Stability [1]: ++
hydrodynamic diameter by intensity [1, 2]: 74.45±18.99 nm
hydrodynamic diameter by number distribution [1, 3]: 55.36±12.88 nm
Z-average [1, 4]: 70.42 nm
hydrodynamic diameter by number distribution ([1]; before incubation (0 h), 5 μM): 56.01±13.54 nm
Z-average ([1]; before the incubation): 74.59 nm
hydrodynamic diameter by intensity ([1]; before the incubation (0 h)): 78.56±21.60 nm

B3: G(GAGVPG)70G(GVLPGVG)28G(ESIINFEKLT)2GG (protein)
chain: GGAGVPGGAGVPGGAGVPGGAGVPGGAGVPGGAGVPGGAGVPGGAGVPGGAGVPGGAGVPGGAGVPGGAGVPGGAGVPGGAGVPGGAGVPGGAGVPGGAGVPGGAGVPGGAGVPGGAGVPGGAGVPGGAGVPGGAGVPGGAGVPGGAGVPGGAGVPGGAGVPGGAGVPGGAGVPGGAGVPGGAGVPGGAGVPGGAGVPGGAGVPGGAGVPGGAGVPGGAGVPGGAGVPGGAGVPGGAGVPGGAGVPGGAGVPGGAGVPGGAGVPGGAGVPGGAGVPGGAGVPGGAGVPGGAGVPGGAGVPGGAGVPGGAGVPGGAGVPGGAGVPGGAGVPGGAGVPGGAGVPGGAGVPGGAGVPGGAGVPGGAGVPGGAGVPGGAGVPGGAGVPGGAGVPGGAGVPGGAGVPGGAGVPGGAGVPGGAGVPGGESIINFEKLTESIINFEKLTGG
presentation of SIINFEKL by DCs (DC2.4 cells): significantly more
SIINFEKL-restricted activated splenocytes (INF-γ ELISPOT) (C57BL/6 mice; subcutaneous immunization twice, 2 nmol SIINFEKL equivalents per mouse with IFA): 105 spots per million seeded splenocytes
B3Z activity, fold more active than DC-treated B3Z cells (B3Z cells): 4.38 fold
B3Z activity, fold more active than OVA/DC-treated B3Z cells (B3Z cells): 3.81 fold
B3Z activity, fold more active than iTEPB-pOVA/DC-treated B3Z cells (B3Z cells): 2.9 fold
mean diameter (DLS) ([1]; 5 μM in PBS, 37° C., by number): 81.2±14.2 nm
mean diameter / size (DLS) ([1]; 25 μM in PBS, 37° C., by number): 71.9±20.8 nm
hydrodynamic diameter by number distribution [1, 3]: 8.39±1.20 nm
Z-average [1, 4]: 422.90 nm
hydrodynamic diameter by number distribution ([1]; before incubation (0 h), 5 μM): 71.94±20.81 nm
Z-average ([1]; before the incubation): 101.00 nm
hydrodynamic diameter by intensity ([1]; before the incubation (0 h)): 111.90±35.02 nm
